Source: patent US20120316325, “DNA APTAMER […] BINDING TO pLDH (PLASMODIUM LACTATE DEHYDROGENASE)” (POSTECH ACADEMY-INDUSTRY FOUNDATION, published 2012)

Columns and labels:
[1] = target: T1, pvLDH (Plasmodium vivax lactate dehydrogenase) (Plasmodium vivax, UniProt Q4PRK9 Q4PRK9:1-316)
[2] = target: pfLDH (Plasmodium falciparum lactate dehydrogenase) (Plasmodium falciparum, UniProt Q27743 Q27743:1-316); assay: fluorescence bead assay, same buffer; binding also seen by EMSA; details: chain copies: 4 inferred; label: FAM (fluorescence assay); Loop 1, G-C rich stem, Loop 2 (Mfold)
Description: A mixture of 16 μg of pvLDH and 10 μL of magnetic beads was incubated for one hour in 100 μL of binding buffer (20 mM Tris, 50 mM NaCl, 5 mM KCl, 5 mM MgCl2, pH 8.0), followed by washing twice with the binding buffer to remove unbound pvLDH. Then, the beads were incubated for one hour with various concentrations of FAM-labeled aptamers. The aptamers which were not reacted with pvLDH were removed by washing.
Only the FAM-labeled ssDNA aptamer which was bound to pvLDH immobilized to the magnetic beads was separated using a magnet and quantitatively analyzed by fluorescence assay (1420 Victor multilabel counter, PerkinElmer, USA). […] Kd values were also determined for pfLDH in the same manner.

[3] = target: T1, pvLDH (Plasmodium vivax lactate …); assay: EMSA; details: tags: (His)6-tag, pET28a, E. coli BL21(DE3); chain copies: 4 inferred

| Binder | Kd [1] [nM] | Kd [2] [nM] | binding result [3] |
| --- | --- | --- | --- |
| GTTCGATTGGATTGTGCCGGAAGTGCTGGCTCGAAC (ssDNA) [Aptamer #1] | 16.8 | 38.7 | – |
| GAACTCATTGGCTGGAGGCGGCAGTACCGCTTGAGTTC (ssDNA) [Aptamer #2] | 31.7 | 49.6 | – |
| GTTCGACCAAATTGTGCCGGAAGTGCTGGCTCGAAC (ssDNA) [Aptamer #1 loop 1 mutant] | – | – | no binding |
| GTTCGATTGGATTGTGCCGGAGACGCTGGCTCGAAC (ssDNA) [Aptamer #1 loop 2 mutant] | – | – | no binding |
